The source of these data is the DeepSol protein solubility set.

The nature of the data set: soluble on expression in E. coli; label from the status in PepcDB or PDB records.
“MTEQVLFSVSENGVATITLNRPKALNSLSYDMLQPIGQKLKEWEHDERIALIVLKGAGTKGFCAGGDIKTLYEARSNEVALQHAERFFEEEYEIDTYIYQYTKPIIACLDGIVMGGGVGLTNGAKYRIVTERTKWAMPEMNIGFFPDVGAAYFLNKAPGYTGRFVALTASILKASDVLFINAADYFMTSDSLPEFLTELESVNWHKEDDVHTNLKEVIRTFATAPNLESELAPSLEVINSHFAFDTIEEIIHSLEKDESSFALKTKEILLSKSPISLKVTLKQFIDGQDKSVEECFATDLILAKNFMRHEDFFEGVRSVVVDKDQNPNYKYKQLSDVSEEDVNRFFNLLNA”: the “soluble on expression in E. coli” value is on record as “not soluble”. In the case of “MSQEIYDYANQLERAVRALPEYQKVLEVKEAIQADVSASELFDEFVAMQEKIQGMMQSGQMPTAEEQTSIQELSQKIEANDQLKAYFEAQQALSVYMSDIERIVFAPLKDLVK” it was “not soluble”. Under “MSNARIGIDMSKIYAPKSIDLSSFQLPDEKLQTKYGLPHKVEFCKSCVISNQRPNSAVEYEHKKESKKHTIHFDDEGICDACRVAERKKSTINWEERDRQLRELCDRFRSKDGSYDCVVPGSGGKDSFYAAHILKYKYGMNPLTVTWAPHMYTPWGWRNFQSWIHAGFDNHLFTPNGRVHRLLTRLAVENLFHPFQPFMIGQKAYAPKMALLHKIKLVVYGENEAEYGNPIGDTESAKRDWKYFTADDKSKIFLGGTSVQELKSDFGLNDNDLDAYLPADPQQIEEQQVEVHYLGYYLKWHPQSCYYYSVEHGGFEASPERTPGTYSKYNSIDDKIDDFHYYTTLTKFGIGRATYDASQEIRSGDITVEEGVALVKRFDQEFPERFAEEIFKYLSINLKEFPIASQMFEQPIMDRAYFMALADTFRSPHLWKKDGEQWKLRHQVTNLEKTKAEYLDLETV” stands “not soluble”; under “MGHHHHHHSHMTPGVVHASPPQSQRVPRQAPCEWAIRNIGQKPKEPNCHNCGTHIGLRSKTLRGTPNYLPIRQDTHPPSVIFCLAGVGVPGLPV”, “not soluble”; under “MGSDKIHHHHHHMSDVDTHPIDRGAGGHNPQKPIRVAQIVGKMVGGGVEAVVMNYYRHIDRSKVQFDFLVDEDSTRVPEEEITSLGGRVFRIPPYQHPIRYRRELIRLMREQQWPIVHSNINTLSVFPLSAAKKVGVPVRIAHSHSTMGKGEFAKNVMKLVLRPFANVYPTVRFACSRYAGKWLFGKNADFTVIPNAIELDKFRFNTEMRKQTRKELGISDDTFLIGHVGRFMPQKNQTFLVDVLAGLLPKRPDAMLAFVGDGPDRTAVQQHVEELGMADHVLFLGQRSDVNRLYQAFDAFCLPSLYEGLGIVAVEAQVADLPCLLSDVVPSEADVTASSYFLQITDVKPWIETLSNLHSSKRSDQISGDIEEYDIQRCANSLVKKYESFICK”, “not soluble”.

As to “MGSDKIHHHHHHMSEDLLNSFQEAYSNLELFPLMERNEMERFRVEYGDDLIADLNQLVEDSPNGDGKIVFTGHRGCGKSTLLAEFSRQIQDKYFVVLFSIADKIEMSAVNHINILFAIAVNLMTEAEARKVDIPQSTKEALYKWFATRTRTEESNLQAEVSIGFDLLKLISSKLKADASVRDEIKQEFERKLSDLVARINEIAALIQAATKQNVLVIIDDLDKLDLGRVNEIYRDNIKALCQPNFQIIYTIPIAVLRETFISTIIATETNDQVVAMPVLKIFDKGKNRFPNAQPRREATKILGEVLQKRIPNELIAAETAEKIVIYSGGVLRELIRISKECCRICLRTIRRNPSAEVIIDDKILLQAINKIRNDFSIRLGKTDIDILQSVYEQFMPNDPKQAEFLDLLHGLYVLEYRTDETWYDVHPIIIESLKRQGAINVK”, the “soluble on expression in E. coli” value is listed as “not soluble”. Turning to “MKLHTLVSCLHDFPVVPKENPEITSIEADSRKVKEGSLFVCMKGYTVDSHDFAKQAAAQGAAAIVAERPIDVDVPVVLVKNTFRSLAVLADYFYGQPTHKLHLIGITGTNGKTTTSHIMDEIMRAHGHKTGLIGTINMKIGDETFEVKNTTPDALTLQQTFAKMVEHGVDSTVMEVSSHALDLGRVHGCDYDVAVFTNLTQDHLDYHKTMEEYKHAKGLLFAQLGNSYNHNREKYAVLNNDDAVTVEYMRSTAATVVTYGIDTTSDVMAKDIAMTSGGTTFTLVTPYESVNVTMKLIGKFNVYNVLAATAAGLVSGVSLETIIDVIKELAGVPGRFEVVDGGQNYTVIVDYAHTPDSLENVLKTAKQFAKGDVYCIVGCGGDRDRTKRPIMASVATQYATHAIYTSDNPRSEDPAAILDDMVHGANGNNYEVIIDRKEAIHHAITKAKADDIIIIAGKGHETYQIIGKDVHHFDDREVAKEAITERLNNEE”, the “soluble on expression in E. coli” value is “not soluble”. In the case of “MAHHHHHHMNRKRPRSPAGVQYWLMKSEPNKFSIDDLKKCTRSPWDGVRNYAARNNMKLMKVGDCVLFYHSNAKPSGVVGLASVVKTAYPDHTALDPKSEYYDARASKKNPWEMVDVQFEEKFASIVSLEELKKEKKLQAMQLFSQSRLSVQPVEKSEYDHVVSLGRKK” it was “soluble”; in that of “MSQANRTNGLVDYKELETNILSSIQEGKPLTGRDGALTPFIKRLLEASLEGEIESHMSAKSEENNRRNGRNAKTLRTSAGSFELLTPRDREGNFEPQIVKKRQTSLHPELEAKVLSTYASGMGYRDIASHVEEIYDHKISAAEISSITDKLLPIINEWRSRPLQSVYPIVFMDGMFFKVKEDGHCVSKCMYNILGINQNGRKEVLGFYLAESEGATFWLGVLNDLKERGVEDILIACIDGLKSFPTAINSVFPSAEVQLCIVHQIRNSLKYVSSKDVKVFMNDLKKIYRASSKEIAENYLLELEEKWGEKYPLVIKSWQNNWENLSSYFKYSGPVRKLIYTTNPIEGLHRQIRKFTKTKGSFTSTNALYKQVYCAIKKVEQKWIMALPNWALTMSQLDIFFPGRLKIELN”, “soluble”.

Consider “MGSDKIHHHHHHMLITAYRERQTRHREKIQRLLNFLKEETYSDFKILMLLFGFRDHKSLYSLLSKVEGMGLIKKHVLVSRTMKISLWGITSDGLAVVLTPDDAIFPARFEPSKITGWTLEHHLDNQVARITLEQKGASGWVNGDRTTFLSRYEVSHRPDGLITLPGGTVIAIETERRLKTKARYQSILASHLLARTRKNWIYVFYIVPDPQKKRGLERLFEGIRHVIINHQHIPLETRHRNVFRIYTLDELQRLNLGHCL”, for which the “soluble on expression in E. coli” value is recorded as “not soluble”. Under “MTEVRRRGRPGQAEPTAQKGAQALERGIAILQYLERSGGSSSVSDISGSLDLPLSTTFRLLKVLQAADFVYQDSQLGWWHIGLGVFNVGSAYIHNRDVLSVAGPFMHRLMLLSGETVNVAIRNGNEAVLIGQKECKSMVRMCAPLGSRLPLHASGAGKALLYPLTEEELVGIVVNTGLRRFTPTTLVDLPILLKNLEQAREQGYTVDQEEHVVGLNCIASAIYDDAGSVVAAISISGPASRLTEDRFISQGELVRDTAKDISTALGLKPPVA” stands “not soluble”; under “MVKGRIHSVESCGTVDGPGIRYVIFTQGCLLRCQYCHNADTWEIGKGKEITVEEVMQDVTCYLPFIEASGGGITVSGGEPLLQLDFLIELFKKCKAAGIHTTIDSSGGCYSEEPEFRNKLDILMDYTDLVLLDLKHIDSKKHRKLTGKPNEHILQFARYLSDKNKPIWVRHVLVPGVTDNEEDLQKLSSFIQSLSNVQKVEVLPYHKLGVYKWEALGHKYPLANVEPPTEKNVEHAKYILQAV”, “not soluble”; under “MKEKISEKEYKALIRKTGKEHFDGEKEEYGDGTVGVWTYELRKYKLKPPVKVKYVTQEQFQEYKDSNNQRLIKIENKVDKLVEIVQIHGEQIKAQGETLQLILQTLQKMSDRLDKMEKRIDKLESK”, “soluble”. For the sequence “MDSIPLEKPHVVSLIGGFGYREPIFRKVLTTAMLDPGINYTLISGPSLDPSKLGGVPKNVRILNFVEDTYPYIKSSDAVIAPGGHSTIMEALSFGVPILSFPDEGHSEQESNAAVVEEEGYGRMLSYSTPPEVILECIREVIEDEAYRNKVERLQRLSGELEHHHHHH”, the “soluble on expression in E. coli” value is “soluble”. Turning to “MSTRKAVIGYYFIPTNQINNYTETDTSVVPFPVSNITPAKAKQLTHINFSFLDINSNLECAWDPATNDAKARDVVNRLTALKAHNPSLRIMFSIGGWYYSNDLGVSHANYVNAVKTPASRAKFAQSCVRIMKDYGFDGVDINWEYPQAAEVDGFIAALQEIRTLLNQQTITDGRQALPYQLTIAGAGGAFFLSRYYSKLAQIVAPLDYINLMTYDLAGPWEKVTNHQAALFGDAAGPTFYNALREANLGWSWEELTRAFPSPFSLTVDAAVQQHLMMEGVPSAKIVMGVPFYGRAFKGVSGGNGGQYSSHSTPGEDPYPSTDYWLVGCEECVRDKDPRIASYRQLEQMLQGNYGYQRLWNDKTKTPYLYHAQNGLFVTYDDAESFKYKAKYIKQQQLGGVMFWHLGQDNRNGDLLAALDRYFNAADYDDSQLDMGTGLRYTGVGPGNLPIMTAPAYVPGTTYAQGALVSYQGYVWQTKWGYITSAPGSDSAWLKVGRVA”, the “soluble on expression in E. coli” value is recorded as “soluble”. Consider “AIASQFDPDKFKQEQKARWNQGARSTWTLWKQTQVEDTPAKFFLGLVPIRPGVKVLDLACGSGETSLQVAQLVSSHLPSDSKDAKIVCVDISEEMLRVLSQRAQELGLSSVVETCCEDAENINFGTHYFDMVMSQFGVMFLPHLPEDLANIRKMMKPGSLFCCVVWGEEKDCHIFYAARSVVSPPPPPPGTPVSYGTKEKVMEALRKAEFSDVKAVEFQVVHETKDAEEYITLMSGVNQWLEKSLGEKGSGPWQKLVEYCNNSYRTSRGTLQFPNVCVGITAIA”, for which the “soluble on expression in E. coli” value was “soluble”. Under “MGLSPSAPAVAVQASNASASPPSGCPMHEGKMKGCPVNTEPSGPTCEKKTYSVPAHQERAYEYVECPIRGTAAENKENLDPSNLMPPPNQTPAPDQPFALSTVREESSIPRADSEKKWVYPSEQMFWNAMLKKGWKWKDEDISQKDMYNIIRIHNQNNEQAWKEILKWEALHAAECPCGPSLIRFGGKAKEYSPRARIRSWMGYELPFDRHDWIINRCGTEVRYVIDYYDGGEVNKDYQFTILDVRPALDSLSAVWDRMKVAWWRWTS” stands “soluble”; under “MSLKTFLESLKFPVQEVNKKSSGEKGPGRPPYWEMVFYWTRKPLVGARSVIAGALLPENVDENLFKAAVRLSSPTPHRENPQIPAEFAKYFEGKKLLDPFAGFGSIPLEGLRLGLDVTAVELLPTTYIFLKAVLEYPKKFGKSLVKDVERWGEWITEQLKNDPEIRELYDDDVAVYIGTWEIRCPHCGRWTPAIGNFWLARVKEGHHHHHH”, “soluble”; under “MADKKLDTQLVNAGRSKKYTLGAVNSVIQRASSLVFDSVEAKKHATRNRANGELFYGRRGTLTHFSLQQAMCELEGGAGCVLFPCGAAAVANSILAFIEQGDHVLMTNTAYEPSQDFCSKILSKLGVTTSWFDPLIGADIVKHLQPNTKIVFLESPGSITMEVHDVPAIVAAVRSVVPDAIIMIDNTWAAGVLFKALDFGIDVSIQAATKYLVGHSDAMIGTAVCNARCWEQLRENAYLMGQMVDADTAYITSRGLRTLGVRLRQHHESSLKVAEWLAEHPQVARVNHPALPGSKGHEFWKRDFTGSSGLFSFVLKKKLNNEELANYLDNFSLFSMAYSWGGYESLILANQPEHIAAIRPQGEIDFSGTLIRLHIGLEDVDDLIADLDAGFARIV”, “soluble”. On to “MSLSSDRLIYLPLGGAGEIGMNAYVYGYGKPGKERLILVDLGVTFPDMDTTPGVDLIMPDIAWLAKNRDRLEAVFITHAHEDHVGAVAHLYDRLGAPVYARAFTANIARRKMGEHGHPDEAVTTVSAWPEMTEAGPFQVGFVPLSHSIPESSGLVIDTPAGRIVHSGDFKLDENPIVGEAFDRKLWEEVAKPGVKVFACDSTNVMSRHPGRSESSVGGEIEKLVGTAEGVFVATTFASNVARVLTLAEAGQRAGRSVCLLGRAMRRMIEAAIETGVLADFPRTVSPEDARNIPRENLMLIVTGSQGERRAASAQLANGKYQGIELKEGDMFLFSSKTIPGNERGVLRIVNQLSEKGVDVIDDSSGLYHVSGHANRPDLETMHEILQPEILVPMHGEHRHLREHVKLADKRGIKGILAVNGMMIDLTGEGHHHHHH”, for which the “soluble on expression in E. coli” value is on record as “soluble”.
